Measurements: the DeepSol protein solubility set

Test: soluble on expression in E. coli; label from the status in PepcDB or PDB records

For “GMSLIEIRKRTLIVETTYHENGPAPAQPLKLAASCAVIRNPYAGRYEPDLMPFMAELRSLGTLLATELVDTLGKDNIEVYSKAAIVGVDGEMEHGAVWHEAGGWAMRSVLGEPKAMVPAVKAVATAGYRMMVPVHYIHASYVRSHFNSIEIGIQDAPRPREILFALVMGTGARVHARLGGLTKEAVSVHDGQR”, which “soluble on expression in E. coli” value is on record?
Its value is “soluble”.

With “MGSSHHHHHHGGTGENLYFQGGSGLRQFIVPVRQTTQRAGLATPPLFGVQKCYVNMNRSVQTRWEIDSQTASQKRTEYDFDKEQWMKQMRFASMDCIMDPDITPIRYTSVAGVKKAFRRFVTMRKLMDRRPDFDPVQLKELFIHFKTLSHEKSPDCFKTLQRITTHGEADRILKEIKGRMNEDFAKKSWRSLKQQGAKSTYEMEVDSFDLVTCYMGQMSQEDWLQITYRCEFRQRESKEYDWETMMEYPVFEVRLGDGVKAPNTHPFIVVGVLKKDGTRYGKDSQDAADLRKQFDRTGRWF” as the sequence, how does the “soluble on expression in E. coli” value read?
Its value is “not soluble”.

With “MGSDKIHHHHHHAQQRTEYNRKGDEAMKRLDYSDAKMWYEEGVSQCDAYSIDQLTTIWLSNERMRPSMRSLMNKCLNCLTVKATEDDPDAISKLIIYYSEGIGTPKSEELATYWKEYQEILLKPAEPAAQPIDSAAVSPKKRMEFFAGYSYSIESPYGITVGGMGQRFGWYVRFKTNMSFMNYTDECNNQGQIIKFSNSEGESYELNTGKSSKTNSIAGTAGLIVKCFPWLYASVGLGYGERALLHSFTTHSYENYDSTREVWCRNIDSSYKGVAAEVDLMMKITNSVFISVGCNTVNFKYLDLNAGLGVFF” as the sequence, how does the “soluble on expression in E. coli” value read?
The value was “not soluble”.

With “MGSDKIHHHHHHMADKRTEGSGKGGAKAAGKGGLGEVVLLSGGNPQIAKGYGDAPVQAYIAAMPGWKRAVGERLDAIVERTVPGVYKAVKWNSPFYGFEGEGWFLSFHCMTKYIKVAFFRGASLQPLPPGASKQKDVRYLDIYEDAPFDEARFADWVAQASRLPGERM” as the sequence, how does the “soluble on expression in E. coli” value read?
Its value is “not soluble”.

For “NQLLTQQANEDGLTKLFNRRYIDQKLDSMVAWHGRHHMPMAMILLDVDFFKPFNDNYGHIEGDRCLQAIANQLKATFCRSGEYVGRYGGEEFVVLLSSTDAQTAEREAERIQEAMYFLDYQHEFSSVANRVTVSQGVFVFQPTGKENQADLYATADRALYTSKSLGRNTYTMVNAS”, which “soluble on expression in E. coli” value is on record?
Its value is “not soluble”.

With “SAGVRGLRLVERYTQDTANIINNVIKLDKQKVEAFSIQYKDPKNFRVQVKINAKGNYKKDTVKTYLSQVGLSDGDLNDTGTLEAEIIYTYMPPAASFFSASKFDKLTRAINFNTNLRIQIIGKDSVMTKLLQQSSFVKQLADQKFQDQSINLLPYVLYSI” as the sequence, how does the “soluble on expression in E. coli” value read?
The value was “not soluble”.

With “MNELDGIKQFTTVVADSGDIESIRHYHPQDATTNPSLLLKAAGLSQYEHLIDDAIAWGKKNGKTQEQQVVAACDKLAVNFGAEILKIVPGRVSTEVDARLSFDKEKSIEKARHLVDLYQQQGVEKSRILIKLASTWEGIRAAEELEKEGINCNLTLLFSFAQARACAEAGVFLISPFVGRIYDWYQARKPMDPYVVEEDPGVKSVRNIYDYYKQHHYETIVMGASFRRTEQILALTGCDRLTIAPNLLKELQEKVSPVVRKLIPPSQTFPRPAPMSEAEFRWEHNQDAMAVEKLSEGIRLFAVDQRKLEDLLAAKL” as the sequence, how does the “soluble on expression in E. coli” value read?
Its value is “soluble”.

Which “soluble on expression in E. coli” value does the source give for “MGSDKIHHHHHHMKKKLKIGISACVMGEPVRFDRGHKKSGFCMEQLAEFAEFKPVCPEMAIGLPVPRPTIRQIVRDNIITVSRPDGSGDVTQALKEFGAKAALNYQELAGFVFCAKSPSCGMERVKVYHHHGKGSESTGVGIFAEQVMKANPLLPCEENGRLNDPIIRENFTTRIFTYQKWLDLKAEGLTRHKLIQFHSAHKYLVMSHHVESYRELGRLLGRADIGLEEQSERYISGLMQALKHKASRRSHTNTLQHLQGYFKRQLDEHKRRELTQEIAAYREGLSPLLVPLTLIKHYLIEFPNEYLLQQAYLNPHPKELRLRYGY” here?
Its value is “not soluble”.

Which “soluble on expression in E. coli” value does the source give for “MRAKKRKFLQKEELSKLLQSLDMSQIGFGWFVMLAAKTGMRYAEALAITPADFDWTAQTISINKTWDYKYNKGFAKTKTLSSVRTIKIDWQIVGQFKPLIKDFPEDEPIFVEKFGDGTYKRQFNSTINNFLAVKCNETGITQISFHALRHTHASVLLAEGVSIHTISARLGHADVGVTQETYAHVLDELQKKDDQKMLSVLMQIALEHHHHHH” here?
Its value is “not soluble”.

Which “soluble on expression in E. coli” value does the source give for “MKPVKVGICGLGTVGGGTFNVLQRNAEEIARRAGRGIEVAQIAVRTPNPNCQIAGTPTTSDVFAVATNPEIDIVVELIGGYTIARDLVLKAIEHGKHVVTANKALIAVHGNEIFAKAREKGVIVAFEAAVAGGIPVIKAIREGLSANRINWVAGIINGTGNFILTEMREKGRTFPDVLAEAQALGYAEADPTFDVEGIDAAHKLTILASIAFGIPLQFDKAYTEGITKLTTADVNYAEALGYRIKHLGVARSTAQGIELRVHPTLIPADRLIANVNGVMNAVMVNGDASGSTLFYGAGAGMEPTASSVVADLVDVVRAMTSDPENRVPHLAFQPDSLSAHPILPIEACESAYYLRIQAKDHPGVLAQVASILSERGINIESIMQKEVEEHDGLVPMILLTHRVVEQRINDAIQALEALQDVVGPVVRIRVEHLN” here?
The value was “not soluble”.

For “MKKWRFLGIDDSFDDRKCCVVGCVTCGGYVEGFLYTEIDIDGLDATDKLISMVRRSKFREQIKCIFLPGITLGGFNLVDIQRVYRETKIPVVVVMRRKPDMEEFDSAMRNLENYELRRKIVEVAGEIHRIGDIYIQTAGLTPSEAEKLVKASLIKGNMPEPVRISHLVASAIIHGESRGKA”, which “soluble on expression in E. coli” value is on record?
The value was “soluble”.

With “MGSDKIHHHHHHMKVLVPATTTNLGAGFDVFGLALDLFNEVEFSFDTKETTIESTGKYASDLKDHNLFFEVLRFFERKTGYRVPPVRIKQTCNIPVSSGLGSSAAVIVAALHIANEGTGRNLSREDLMKLAVELEGHPDNVVPAFTGGLVVCYQNGSHLDFEKFEIDLSLTFLVPNFPVCTNEMRKILPEKVPFEDAVFNIKNSCQFLAKIAAGKIKEALKYVGDRLHQNYRINGNKKMKEFVEAILSKNPEYWFVSGSGPSVCSNINDFEGIPYLKDVLKLRVNNRGMIVSE” as the sequence, how does the “soluble on expression in E. coli” value read?
The value was “not soluble”.

For “GPGSMYTHTRMHTTSASATLLSLPLCVRASPTNTPAAQLSALSDHLGLRVIKTNNLHTSSRSNMPAKAAAKPVKPAAKAAPKPANKAPAPKAAAAKPVAKAAPKAAAPAARPASGSSNGVYVKNWGTGSVADAANVFSAAGKVVKVQLRRQRYAIVFFENSAAVKKAIDLFNEKEVLGKTVLVVPAKTSPKPDAHENSSCVFVSPIFRPSTTKAQVMELFAGVKVQRLRMYRQNFAYAYLDSPAAAKKFVEEKNGTEFRGHTLRVALSARSLEKLRARQEAANVVIAAHRHYKTHERQ”, which “soluble on expression in E. coli” value is on record?
Its value is “not soluble”.

For “LMPLRDIVIFPTMVQPLFVGRRFSIRAIEEANKKDKLIFLVLQKDKDVEEPKEEDIYKVGVVAYILRTVPIEDARVKVLVQGLKRGVIKKLEWKEDHYVAQVDVIEERDIPPESQTIEDKALIKAVKESIDKLVSLGKQIIPDLVVLIKELEEPGKLADMVASILDIKSSQAQEILETFDPRERLKK”, which “soluble on expression in E. coli” value is on record?
The value was “soluble”.

Which “soluble on expression in E. coli” value does the source give for “MEPPSSRPEEPPSWEDLYKINLMPSELFLKFRKELQGLRVGVNLELYNEPTNDYHAKLVLKPLCPERKWKFIYEPLHQEVRVLSKKIPVTRFLNLQVGVGHNFQMNAIGWKWKLTSCLGGDGVSRIRNKTTLGLSPGIDFRFGWRADFVLPEVTGALGTEEPLFNMSSGRLEASLDRVEAIVTHSDYL” here?
The value was “soluble”.

With “MEKVKVKNPIVELDGDEMARVMWKMIKEKLILPYLDIQLVYFDLGIKKRDETDDQITIEAAKAIKKYGVGVKCATITPDAERVKEYNLKKAWKSPNATIRAYLDGTVFRKPIMVKNVPPLVKRWKKPIIIGRHAYGDIYNAVEAKVEGPAEVELVVRNKENKTLLVHKFEGNGVVMAMHNLEKSIRSFAQSCINYAISEKVDIWFATKDTISKVYHAYFKDIFQEEVDKRKEELEKAGVNYRYMLIDDAAAQILRSEGGMLWACMNYEGDIMSDMIASGFGSLGLMTSVLVSPDGVYEFEAAHGTVRRHYYRYLKGEKTSTNPTASIFAWTGAIRKRGELDGTPEVCEFADKLEKAVINTIESGVITKDLQPFTEPPIDKYVTLEEFIDEVKKNLEKLL” as the sequence, how does the “soluble on expression in E. coli” value read?
The value was “soluble”.

For “MAHHHHHHMGVKFIVEHMDDLEEWCILEYMHICEIVKDENIIFTKFKGNFKDISKSHEPKCYEKSIGDLKDEFGWNKICLLDMKAKDVLTCKDKNEIDFLLFGGILGNVPSNDRTSELRKFEFPISRNLGSVQMTTNTAVLVCHIILNDQVELENIPFVDNPDIVLKNNKESMMLPFRFVSKYYYTKCESDKNVPILPKNFKDYLIKLGDQQYNDLDSFF”, which “soluble on expression in E. coli” value is on record?
The value was “soluble”.

With “MTQRLQLTWYNKDKALIPTETGKYGYTWVDPSDPRYCETHTLIFDDYVQGAQTPKSDEFECSERADLQPQDDNLLILGESGDVLEALTRVPELAEKYVGKVKLVYIDPPFNTAQTFASYEDNLEHSIWLTMMRDRLIHMKKLLTNDGSIWVHLDDVEVHRMRVLMDEVFGADRFIATVAWEKDKGRRNDTDISGAHDLILIYAPSGRQWKNVRNLLPRLASQDARYQNPDNDPRGPWLQGDNGTAKSGTEKNRFPVTLPSGRVVTPKGRYWRFSPEGLAEARADGRVWFGKDGDSLPVIKRYLTDVQTGLVPRTWWNADEAGHNQEAKRDHLNKMFPEVENP” as the sequence, how does the “soluble on expression in E. coli” value read?
The value was “not soluble”.

For “MSLNKLLSQLASVEILTPKIDDTLWFFKDILGLHEVGRKDRSVYLRGWEDWYAYSLKVTESDTAGVKEIVWRTYSEKDLIDSINIVNSNGLGLGWDEGEPDMGVGKGYKFILPSGQIGKLVWEMKIWRASGELRSGYKARPMKKPTKGVQAKDLSHIFIFAYNDESLAKTVELLKRLTFKVNEILKEGDKRIAYWMAVNGTAHDLAVSLDPSGVPARLNHVTFNVDYADDILKAADFYTDYGLEIVGGPLRHGITDSHSLYVKEPGGNVIELLHGGYLNVVPDWEPIVWDTKEDENRWLYYWGHVKEAFWHGEGHHHHHH”, which “soluble on expression in E. coli” value is on record?
Its value is “not soluble”.

With “MTDRYIAFANSPVGRRLVGAVGLPSPLRLERWQAGRVRPVDGPLVIGGSGALAEAVLPFAGKLTDAVFAAVDGQFELPRWTAEHSPRAKAVLFDASGLTRFEQLVALRDFFQPVLKGLDKCPKVVVLGRPPESLKDPVTASVQRSLEGFTRSLGKEIRRGGNVQLLYVGKGAEDQLEGALRFFLSPKSAYVSGQVIRLAANSAQVHDWSKPLAGQRALVTGAARGIGAAIAETLARDGAEVVLLDVPPAREALEGLAARLGGRAVALDICAADAGQQLVEALPEGVDIVVHNAGITRDKTLAKMSSDFWNSVINVNLNAPQVLTQALLDGGKLHDNGRVVLLASISGIAGNLGQSNYAVSKAGLIGLAQAWAPALGKRGITINAVAPGFIETQMTAAIPLTIREAGRRMNSMSQGGLPQDVAETVAWFAQPSSGAVSGQVL” as the sequence, how does the “soluble on expression in E. coli” value read?
Its value is “not soluble”.

With “MSLDSSISDEDTVTVRTAKQVALVVEGQIQNVTTTAVSVEDLLQEVGGITGADAVDADLSETIPESGLEHHHHHH” as the sequence, how does the “soluble on expression in E. coli” value read?
Its value is “not soluble”.

For “HHHHHHESDDDDKLAFGAIQLDGDGNILQYNAAEGDITGRDPKQVIGKNFFKDVAPCTDSPEFYGKFKEGVASGNLNTMFEYTFDYQMTPTKVKVHMKKALSGDSYWVFVKRV”, which “soluble on expression in E. coli” value is on record?
The value was “soluble”.

Which “soluble on expression in E. coli” value does the source give for “MSEPPPPHSAPVPMVKTDFFAFSGPYLPEDAHGTSSPPEKQQQTRKRGRPTALELLTTRVEELEKENSSLRTFRTAAESRCRALESKQSELFQTVEQLKVVVAKLTNECSARVTSNLPAPRLFADVLKGQSAEKKAEIIAERREAAASISLFEKKTHFAVIENLPDDGSDSQSAKDKVFLDNLIAANPSLPVHIQTFRVKTRKPVLSRPTKIRFSSEADRNSFIFSFSKTLRSLPDRPTNLPRPIRCRRDMTNDVIYPERVES” here?
The value was “not soluble”.
